# ± gives the half width of the 95% confidence interval.
# Experiments:
# [1] = folding stability dG unfold from trypsin proteolysis; higher = more stable
# How it was run: (§1)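 Mini-proteins designed to be under 80 residues and free of cysteine were carried in a PA-tagged cDNA display construct and digested with trypsin and with chymotrypsin. Each protease was applied at 11 threefold-diluted concentrations, alongside a no-protease condition, before sequencing. K50 came from Bayesian fitting of the sequencing counts, and unfolding free energy was obtained by comparing it with a sequence-predicted unfolded-state K50 and a shared folded-state K50, for each protease separately or for both together. Designs were retained only if their AlphaFold2 dimer inter-PAE exceeded 15.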
# [2] = folding stability dG unfold from chymotrypsin proteolysis; higher = more stable
# How it was run: as §1
# [3] = folding stability dG unfold (combined trypsin and chymotrypsin); higher = more stable
# How it was run: as §1
Sequence,folding stability dG unfold [1] [kcal/mol],folding stability dG unfold [2] [kcal/mol],folding stability dG unfold [3] [kcal/mol]
SAGSKELVIVEKDEPVEGETLDYTNGKKKKFPKKVPVVKEIVLPKNSPEAEKIAKELSPPNVKVEILAKSAG [r5_468_JUSTAS],-1.08 ± 0.81,-0.322 ± 0.11,-0.617 ± 0.32
SAGSMEALRALAEELAAEIAAAARAAGREVEVDITEVRPGEVRIRVTTTPPGGERTVEDIEIALPEERLSAG [r5_994_JUSTAS],0.934 ± 0.018,1.82 ± 0.026,1.48 ± 0.034
SAGSMEPGEVLNVTMTFYDTSGNKLGTVNFTFTDEEEAKKKIEELAKEIKEKLNKNVKVTVEINKSPSLSAG [r5_232_JUSTAS],3.5 ± 0.25,4.59 ± 0.23,4.76 ± 0.78
SAGSMLSVEEVEVTYNNPETGTPATIKLTVPVFYDPVTGRVEVEVEVEPSPEVPEEVAKEIAEKVKEKRSAG [r14_152_JUSTAS],-1.26 ± 0.95,0.494 ± 0.066,-0.0138 ± 0.35
SAGSMSFELTVDYEKLPDGTYRVRATITIYDPNNNNPLKTVDFEGEATSEEEAEARARARAEEVKEAASAGG [r19_255_JUSTAS],1.84 ± 0.078,2.942 ± 0.023,2.69 ± 0.17
SAGSMVLTEDKEFEVDYVLPDGTRLTEPVKVKVKTTTVFLKNNSSLVLTFTTVTLTDPKGNKVTFSGSVSAG [r5_257_JUSTAS],2.31 ± 0.074,2.969 ± 0.018,2.7 ± 0.1
SAGSPLTLSEKTSYDPSTGVTTRTFTFPDGTTRTTATVTVPGTGTLLTSTDFTQSPGTLTQSSGVAPLSAGG [r19_394_JUSTAS],0.392 ± 0.019,0.706 ± 0.031,0.616 ± 0.025
SAGSPVVIKVSKVDSSGNWTLLEEIPIPPSEVSGVELVGDSLKILPPGSGGSYTFTIENSTVTVSIEESAGG [r19_408_JUSTAS],0.465 ± 0.038,1.27 ± 0.084,0.933 ± 0.06
SAGSRVLTLVFEIPGRPEVVENLPEDVVLPDGARLYRDGERLLLVVEREVPSLPVLDADGRPVGPELLSAGG [r19_148_TrMRF],0.4 ± 0.027,1.11 ± 0.056,0.85 ± 0.039
SAGSSAVEVDIDEELKEKLKKLIDPDKPIEITRLKTTTNETIILITEKGSGKKYIFTRNKEGKIEIKKSAGG [r19_70_JUSTAS],2.07 ± 0.061,2.5 ± 0.065,2.38 ± 0.069
SAGSSLNILLELETPEEAEKEAARIKEEIPKKGISVTVTIVSKEELEKLLKENVIELPNGSLKLVLFPSAGG [r19_187_JUSTAS],0.201 ± 0.11,0.138 ± 0.19,0.218 ± 0.25
SAGSSMLDSLTVDTEVTLDPAKGTVLVKTTTTLPDGTVTRTVTTVTVEPLNPPPPPPPRFDPRTGEALESAG [r5_816_JUSTAS],0.79 ± 0.082,0.207 ± 0.15,0.549 ± 0.14
SAGSSMSLPLPEEIEIEIPNPGLSLEEIKKIVADKLGLKIVSVEEEEGRLVFKAENGIPIRVKIEEPGKSAG [r5_350_JUSTAS],2.35 ± 0.13,2.376 ± 0.013,2.34 ± 0.072
SAGSSMSVTIKVTIRSPTRTEEIEITVSPSESLEEAIKKVAEKLPPDYSITITFEGGETVTIPIPKELLSAG [r5_77_JUSTAS],1.93 ± 0.1,1.15 ± 0.024,1.58 ± 0.089
SAGSSSMVLLKVTITFTDPNGTTTTLTYTFDDPSNPEKARAAVEALAAEIKAATGASWTITMTTVPVPGSAG [r14_146_JUSTAS],4.59 ± 0.16,5.32 ± 0.066,5.17 ± 0.12
SAGSSTPGSEVVRVTSEVSEGESNRTVSYTTYVFEPGGPALRPLSTSTTTVPAAPGVPEGGTKTISLPGSAG [r5_861_JUSTAS],-0.419 ± 0.064,-0.755 ± 0.2,-0.534 ± 0.11
SAGSSTTLTFPVDTKIPDEKGNPLSSSTVTVTVNPSPGKVTATLTDPATGTVTTVEFGSLEKVEAFLSSSAG [r14_508_JUSTAS],1.29 ± 0.042,-0.218 ± 0.18,0.809 ± 0.067
SAGSSVTAPFSLPSDLVVDSVTYDPDAKTVTVTVTDPRGGRKAVGTFPVWDPNGNPVLSTADSYTFDNPSAG [r5_434_TrMRF],-0.417 ± 0.03,-0.0129 ± 0.058,-0.128 ± 0.053

Sequence,folding stability dG unfold [1] [kcal/mol],folding stability dG unfold [2] [kcal/mol],folding stability dG unfold [3] [kcal/mol]
SAGSTTRVVELPGNKRVEVEVSTVGDSLTFTITLRDEEGNPVKTLPVAVPDPSLPVEEAIAAAVAAFLASAG [r5_630_JUSTAS],3.15 ± 0.049,3.91 ± 0.029,3.68 ± 0.042
SAGSYSVTADVTVHPDGTVDVTLTITTNGEDGTTETSTVLPLTLDLPPGTAVTVTVDPNNGTVTVTVEASAG [r5_179_JUSTAS],3.01 ± 0.14,4.14 ± 0.058,3.89 ± 0.079
SAGTIAKEIAEKLGLPGLKVKDVKFEPDPDGPIKEIEITVEFPNGRYWKIDIRYDPGNIVIDIEPVPPSAGG [r19_392_TrROS],1.98 ± 0.056,2.29 ± 0.029,2.17 ± 0.1
SAGTIKELLEKLPGFSVEVDPDDGTVWVMFRMPDHYVMIEIPIDKEDGNIKGIRIHRHDPNGEPKPIPLSAG [r5_367_TrROS],1.44 ± 0.038,1.19 ± 0.22,1.44 ± 0.12
SAGTIREALDNPKNKRVVIMIMIPPEDFPPGDPERYRERAREMANGIMGWFRERGLDVKIEIEIMYMPWSAG [r5_408_TrROS],2.38 ± 0.044,2.77 ± 0.03,2.65 ± 0.079
SAGTITADDITEIEMQWDPGNGYVQIEIEFPNGYTVNAWMPNDKIEIEVWYPNGKKVEIEFEIKPPGASAGG [r19_121_TrROS],1.72 ± 0.22,2.74 ± 0.18,2.39 ± 0.38
SAGTLTLELEVEVDGVLVRVRVEVRPGEEVEVRVEVEVRELPPEPEVEEEEKVELSEEDLERLRRLAEESAG [r5_958_TrROS_Hall],2.46 ± 0.071,3.4 ± 0.086,3.05 ± 0.1
SAGTVSSSFDPATGTLTITRTTSPDETVDLTLNVEVPETPATVAKVDSGGPVEGDEPVTITVELTDLKPSAG [r5_737_JUSTAS],0.222 ± 0.075,-0.522 ± 0.42,-0.152 ± 0.24
SAGVISPTDPTTTTTTEVRESEDGTTTTVSTVTYPGTGSTMTVTTTTTHDPSTGTSTVTSTTTTDPSASAGG [r19_342_JUSTAS],1.57 ± 0.086,0.394 ± 0.029,1.08 ± 0.059
SAGVLTIEVQMPADDAEEFAEEVADTIARRLGFPPGFKIKVKVDRFDPDNGYVRVEATIEFPLPPNQPPSAG [r5_537_TrROS],2.61 ± 0.12,2.19 ± 0.059,2.43 ± 0.099
SAGVTLKLPFVLPGGLGVDEIEVRSLPGGRVEARLRLKGDPRYYVVARFYVLPGGRLVITDVRVRREDESAG [r14_705_TrMRF],3.75 ± 0.095,3.22 ± 0.031,3.54 ± 0.082
SAGVVEELLKEFPDVEKVTSSSYPGPKVSQYVIYFPTPSGKKVTIKITVTQPRLPSNSTTSELSIELNDSAG [r5_398_JUSTAS],2.11 ± 0.12,2.25 ± 0.12,2.08 ± 0.38
SAGVVEITFEVPETGEPFTLVIDEDGNVTGRWPSTGDEQEWKLGDKVITFPPNMSPELAAELEKEALSESAG [r14_561_TrMRF],0.66 ± 0.053,0.587 ± 0.25,0.644 ± 0.18
SAGVVVERTVTRTVPKDSATKEKIIEEIKASMPGMKVKEVEVLSETPLPDGSIVVTVKLTIERPPDVLESAG [r5_682_JUSTAS],3.23 ± 0.11,2.88 ± 0.092,2.98 ± 0.11
SAGVVVRPGEPVPFYVVRVETELRTRPRPDGSEVTTVETRVEVRPYTVTVGPVPVVEVPPDATDPADAASAG [r5_770_TrMRF],2.09 ± 0.2,3.96 ± 0.17,3.21 ± 0.16
SAGWKPITAEEIKKLVKEFAEKAPPGDKRPVTVEIRLPLPNGRHWVFTIKVERTDNNVKVKIEVQPYNSAGG [r19_220_TrROS],2.49 ± 0.076,3.64 ± 0.039,3.2 ± 0.11
SAGWRQILDMARNMLENGHMFRIEWTGPGGKPQEFRIPLDDIETLLDNWPDPDDIRSVDIEVYPPGEPISAG [r5_957_TrROS],1.72 ± 0.021,2.45 ± 0.056,2.22 ± 0.062
SAGWYIKIKIEYPGDGQKKLEVPIPIPSPEEAKEFADEIADMLAEQNGGNIKIEVEVFRLPPVPPEDQGSAG [r5_87_TrROS],0.544 ± 0.11,2.2 ± 0.15,1.82 ± 0.21

# Source: the supplement of paper PMC12764529
